Data on three molecules can be found in publication PMC10709394, “Structural basis for nucleosome binding and catalysis by the yeast Rpd3S/HDAC holoenzyme” (Cell Research, 2023).

B2: Rpd3 (enzyme, yeast, UniProt P32561 1-433, looked up)
chain: MVYEATPFDPITVKPSDKRRVAYFYDADVGNYAYGAGHPMKPHRIRMAHSLIMNYGLYKKMEIYRAKPATKQEMCQFHTDEYIDFLSRVTPDNLEMFKRESVKFNVGDDCPVFDGLYEYCSISGGGSMEGAARLNRGKCDVAVNYAGGLHHAKKSEASGFCYLNDIVLGIIELLRYHPRVLYIDIDVHHGDGVEEAFYTTDRVMTCSFHKYGEFFPGTGELRDIGVGAGKNYAVNVPLRDGIDDATYRSVFEPVIKKIMEWYQPSAVVLQCGGDSLSGDRLGCFNLSMEGHANCVNYVKSFGIPMMVVGGGGYTMRNVARTWCFETGLLNNVVLDKDLPYNEYYEYYGPDYKLSVRPSNMFNVNTPEYLDKVMTNIFANLENTKYAPSVQLNHTPRDAEDLGDVEEDSAEAKDTKGGSQYARDLHVEHDNEFY
notes: Rpd3, yeast class I histone deacetylase, endogenous catalytic subunit of Rpd3S; Subunit of the endogenous holoenzyme; also called Rpd3/HDAC
B3: Rco1 (natural protein, yeast, UniProt Q04779 1-684, looked up)
chain: MDTSKKDTTRSPSHSNSSSPSSSSLSSSSSKEKKRPKRLSSQNVNYDLKRRKIITSEGIERSFKNEHSNLAVEDNIPEEEPKELLEKDSKGNIIKLNEPSTISEDSKVSVTGLPLNKGPSEKIKRESLWNYRKNLGGQSNNSEMTLVPSKRFTQVPKNFQDLNRNDLKTFLTENMTEESNIRSTIGWNGDIINRTRDREPESDRDNKKLSNIRTKIILSTNATYDSKSKLFGQNSIKSTSNASEKIFRDKNNSTIDFENEDFCSACNQSGSFLCCDTCPKSFHFLCLDPPIDPNNLPKGDWHCNECKFKIFINNSMATLKKIESNFIKQNNNVKIFAKLLFNIDSHNPKQFQLPNYIKETFPAVKTGSRGQYSDENDKIPLTDRQLFNTSYGQSITKLDSYNPDTHIDSNSGKFLICYKCNQTRLGSWSHPENSRLIMTCDYCQTPWHLDCVPRASFKNLGSKWKCPLHSPTKVYKKIHHCQEDNSVNYKVWKKQRLINKKNQLYYEPLQKIGYQNNGNIQIIPTTSHTDYDFNQDFKITQIDENSIKYDFFDKIYKSKMVQKRKLFQFQESLIDKLVSNGSQNGNSEDNMVKDIASLIYFQVSNNDKSSNNKSASKSNNLRKLWDLKELTNVVVPNELDSIQFNDFSSDEIKHLLYLKKIIESKPKEELLKFLNIENPENQSE
notes: Two copies stand in the holoenzyme; also called Rco1 I; Rco1 II

Holding throughout (assay): cryo-EM structure; endogenous Rpd3S incubated with an excess of H3Kc36me3 mononucleosome (70-bp DNA link at one end), fractionated by gel filtration, concentrated, no cross-linking; 3.7 Å
The data set “Rpd3” deals with B2. The conditions noted are these: both partners purified.
A further data set has as its target T1, Sin3 (yeast, UniProt P22579 1-1536).
T1 construct: Sin3, yeast, endogenous scaffold subunit of Rpd3S
The conditions noted are these: both partners purified.

The data set “Rco1” concerns the target B3. The conditions noted are these: both partners purified.
Data set [1] concerns the molecule itself.

T1 sequence (P22579 whole entry): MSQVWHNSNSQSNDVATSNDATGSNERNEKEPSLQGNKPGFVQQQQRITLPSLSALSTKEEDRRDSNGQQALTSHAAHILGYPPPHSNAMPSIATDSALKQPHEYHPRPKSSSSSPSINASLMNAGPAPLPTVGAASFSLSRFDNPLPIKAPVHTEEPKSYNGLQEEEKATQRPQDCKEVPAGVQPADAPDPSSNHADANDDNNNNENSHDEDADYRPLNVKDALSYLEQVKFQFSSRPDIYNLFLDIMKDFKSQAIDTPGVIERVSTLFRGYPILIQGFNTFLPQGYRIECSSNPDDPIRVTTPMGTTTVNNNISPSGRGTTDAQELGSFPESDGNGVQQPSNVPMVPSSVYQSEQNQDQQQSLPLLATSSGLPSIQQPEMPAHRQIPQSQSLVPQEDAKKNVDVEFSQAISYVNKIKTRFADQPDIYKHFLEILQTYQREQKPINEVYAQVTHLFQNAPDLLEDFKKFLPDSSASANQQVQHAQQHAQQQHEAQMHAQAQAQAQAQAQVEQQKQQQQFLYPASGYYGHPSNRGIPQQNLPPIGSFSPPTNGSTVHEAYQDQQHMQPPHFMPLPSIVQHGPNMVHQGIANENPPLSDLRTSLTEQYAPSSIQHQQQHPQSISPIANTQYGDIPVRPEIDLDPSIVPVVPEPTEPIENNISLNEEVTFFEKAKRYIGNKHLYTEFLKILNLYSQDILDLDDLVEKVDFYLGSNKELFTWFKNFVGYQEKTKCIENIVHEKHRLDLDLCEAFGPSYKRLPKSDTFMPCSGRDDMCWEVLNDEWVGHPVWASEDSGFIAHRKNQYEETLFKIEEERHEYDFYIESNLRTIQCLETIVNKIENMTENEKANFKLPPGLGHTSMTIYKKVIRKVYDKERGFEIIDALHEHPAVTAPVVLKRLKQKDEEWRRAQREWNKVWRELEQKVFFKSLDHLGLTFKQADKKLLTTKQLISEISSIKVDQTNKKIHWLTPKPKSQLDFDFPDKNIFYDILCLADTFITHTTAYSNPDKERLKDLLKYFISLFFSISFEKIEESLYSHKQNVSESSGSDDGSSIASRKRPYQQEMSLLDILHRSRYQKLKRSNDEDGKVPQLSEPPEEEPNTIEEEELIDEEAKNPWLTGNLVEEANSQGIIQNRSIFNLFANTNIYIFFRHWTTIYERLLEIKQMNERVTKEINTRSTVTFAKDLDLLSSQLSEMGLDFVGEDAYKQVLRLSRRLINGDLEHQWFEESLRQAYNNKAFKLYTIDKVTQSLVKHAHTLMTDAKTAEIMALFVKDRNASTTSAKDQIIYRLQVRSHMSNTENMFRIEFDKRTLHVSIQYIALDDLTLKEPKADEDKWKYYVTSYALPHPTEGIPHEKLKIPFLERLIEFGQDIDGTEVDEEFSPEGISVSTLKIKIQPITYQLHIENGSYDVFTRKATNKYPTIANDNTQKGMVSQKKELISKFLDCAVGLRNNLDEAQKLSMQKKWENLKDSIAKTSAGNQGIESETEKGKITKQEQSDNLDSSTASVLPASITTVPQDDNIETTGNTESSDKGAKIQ

B1: Eaf3 (natural protein, yeast, UniProt Q12432 1-401, looked up)
chain: MVDLEQEFALGGRCLAFHGPLMYEAKILKIWDPSSKMYTSIPNDKPGGSSQATKEIKPQKLGEDESIPEEIINGKCFFIHYQGWKSSWDEWVGYDRIRAYNEENIAMKKRLANEAKEAKKSLLEQQKKKKLSTSLGGPSNGGKRKGDSRSNASISKSTSQSFLTSSVSGRKSGRSSANSLHPGSSLRSSSDQNGNDDRRRSSSLSPNMLHHIAGYPTPKISLQIPIKLKSVLVDDWEYVTKDKKICRLPADVTVEMVLNKYEHEVSQELESPGSQSQLSEYCAGLKLYFDKCLGNMLLYRLERLQYDELLKKSSKDQKPLVPIRIYGAIHLLRLISVLPELISSTTMDLQSCQLLIKQTEDFLVWLLMHVDEYFNDKDPNRSDDALYVNTSSQYEGVALGM
notes: Two copies stand in the holoenzyme; also called Eaf3 I; Eaf3 II
On to B1, for which the binding result in the data set with Rpd3, in the data set with Sin3 and with Rco1 was “binds” each time.

Turning to B2, the binding result in the data set with Sin3 and in the data set with Rco1 was “binds” in each case.

Consider B3, for which the “stoichiometry N” value in data set [1] amounted to 2. In addition, in the data set with Sin3, the binding result is reported as “binds”.

As usually defined, the stoichiometry N is the number of molecules, sites or subunits per partner or assembly.
